Source: a protein production outcome set (Wang et al. 2014)

Assay: label from the status in PepcDB records

Sequence | protein production
MSSFVLDKEAFVRRVKRLYTEWRAPSIGHDDALRNLDCIMSIVGVEEDVMYSKSMALQLWLLGYELTDTISVFCSDAVYFLTSKKKIEFLKQTQNITEEGFPEINLLVRDRTDKDQGNFEKLIKALQNSKKGKRLGVFAKDAYPGEFSEAWKKSLTASKFEHVDISTIIAYLMCPKDESEINNIRKASLVSMDIFNKYLKDEIMDIIDSDRKVKHNKLSDGCEAAIGEKKYTSGLDPRLLDMAYPPIIQSGGAYSLKFSAVADKNPLHFGVIVCSLGARYKSYCSNISRTFLVNPTEAMQENYTFLVSV | failed
MTAPEPSRDAKRLVRIDGVTKRFGDAPPALDAVSGAIGGGAITGLVGPDGAGKTTLIRLMTGLMLPDTGTMNVLGFDTRKNAAGIQAAIGYMPQRFGLYEDLSVQENLDLYADLRGLPKSERAGAFDELLTFTDLKRFTTRLAGKLSGGMKQKLGLACALLKKPRLLLLDEPGVGVDPISRRDLWKMVENLTKEGIGVVWSTAYLDEAEACDHVLLLNQGKLLFSGKPDEMTERVSDRVFRVSDVTGRRRQVLAELLQADGVIDGVIQGEAIRLVAANGKTPDIGKAGDGALLSPAPPRFEDAFVDMLGGGPGGRSRLAEAQEPLKAEGDRPVIEAKGLTKRFGDFTAADDISFDIRRGEIFGLLGPNGAGKSTTFKMLCGLLKPTGGEGRVAGFDLRRDAAEARNQLGYMAQKFSLYGDLTVMQNLEFFAGVYGLRGQRRHERIELMTEIFDFGRHAREPAKDLPLGLKQRLALACAVMHEPRALFLDEPTSGVDPITRREFWTHINGLVEKGVTVLVTTHFMDEAEYCDRISLIYRGRSIALGSPDELKARVATKNGPDPTMEDAFIALVQQSEAEDAA | failed
MVRGDAVIVQAALQDGHWSGRADVLRRVEIPSGLGAWSSVVEDKKQALDLVDRVLSKNPASASAHRTKGAILLFGHPEEAMAEYDAALEIDPNNPAVYAAKTITLIVTGRAREAFSPLQLAHCYVCFGHCARVAEARCSIRTQGAGLRRVALLARSRT | failed
SKSNKIFVGGIPHNCGETELREYFKKFGVVTEVVMIYDAEKQRPRGFGFITFEDEQSVDQAVNMHFHDIMGKKVEVKRAEPRDSKS | not failed
SDCDIEGKDGKQYESVLMVSIDQLLDSMKEIGSNCLNNEFNFFKRHICDANKEGMFLFRAARKLRQFLKMNSTGDFDLHLLKVSEGTTILLNCTGQVKGRKPAALGEAQPTKSLEENKSLKEQKKLNDLCFLKRLLQEIKTCWNKILMGTKEH | not failed
ITIRDDILFQSGSAELTAGKREIAKEIGELFAQGKGTMEGIVSGHTDNVPISTSIYSSNWELSVARAVNFMEAIIQENSEVNPGEFSARGYGEFRPVAKNDIAANREKNRRVEIMVRPINRDTLDEDE | failed
MPHLRFRAVEAHIVESLVPTLLNELSSLLSTARNAFTFELINTQYFAEGGVYPMVEVLWFGREQQTQDQIAQVITDQIRQLLGADSHLAVVFIPLQRTAYYLDGQHF | not failed
MSLDIEQQFLNDLDNQLWRAADKLRSNLDAANYKHVVLGLIFLKYVSDAFEERQQELTELFQKDDDDNIYYLPREDYDSDEAYQQAIAEELEIGDYYTEKNVFWVPKTARWNKLRDVITLPTGSVIWQDEQGEDVKLRSVSWLIDNAFDDIEKANPKLKGILNRISQYQLDADKLIGLINEFSLTSFNNPEYNGEKLNLKSKDILGHVYEYFLGQFALAEGKQGGQYYTPKSIVTLIVEMLEPYKGRVYDPAMGSGGFFVSSDKFIEKHANVKHYNASEQKKQISVYGQESNPTTWKLAAMNMVIRGIDFNFGKKNADSFLDDQHPDLRADFVMTNPPFNMKDWWHEKLADDPRWTINTNGEKRILTPPTGNANFAWMLHMLYHLAPTGSMALLLANGSMSSNTNNEGEIRKTLVEQDLVECMVALPGQLFTNTQIPACIWFLTKDKNAKNGKRDRRGQVLFIDARKLGYMKDRVLRDFKDEDIQKLADTFHNWQQEWSEENNQAGFCFSADLALIRKNDFVLTPGRYVGAEAEEDEGHHHHHH | not failed
MKVLKFGGTSVGDAERIRSVARLITSVKGRKIIVLSAMAGTTNSLVEIASHLVKRNVAQAKEVVQVLREKYHREINALYKRPDTLSAAKKAVDSLLDSLGHMCDVEGFTLFEEKRVLIL | failed
PRWSVAAATAVTDFCDRLACDRVALGRRHRRRSKVVSLSHSGNFQRSSELVQRIADAMDEAIDQGEPIRMPQDSDNTLTLTAAHQELIHSGVPRAVLTVLLRRDGRVTGAMVLERGGNNPFRDEEVELVEAVAGILGPVLEEKRLNDR | failed
MAQIISNAAVGRTLLILLLCAGVFFFIDFLVPALAALIICFSSWPLYKKLLVKCGGRSAVAASIALVLIVLGLITPLIFVFSYALQEIRIWAEWLVYANQHGAPVPLWIKDLPWVGEWLTLQWQQFIGEPHELGQIVSAISGQNLTGISRWVLQLGWNTLGLLLTLLFMLITLFFLYKDGESVAKQVDVVGERILPARWYRFSRVVPATVSSTVIGMTLIAIGEGIVLGIAYWIAGVPSAVAFGVLTAFMALIPGGAPTMFTLISLYLVGTGDMTAGVGLFLWGSIELFIVDKTLRPNLVGGPIKLPFLPTFFGLIGGVKTMGFVGLFVGPVLMALLVAIWREWLRDDPDTFVMPESLAPETLEADKVQRRLD | failed
MEQTHLKYEQLKAILREMGSVLVAFSGGVDSTFLLRVAHGLLGDKAVAFTATSPTYPESEFREAVGLARSMGARQVVVESNELEIPGFAFNPRNRCYHCKKELFGLCGRTAAELGLAWVADGSNCDDLDDYRPGRAAAGELGVRSPLVEAGLTKADIRELSRELGLPTWDKQAFACLSSRFPYGTEITPERLRMVGACEEFLRENGFRVYRVRFHGDTARIETAPEEIPRLFDPSLRLRIAAFFREAGFAHVAVDLEGYRTGSMNTDAG | failed
MILSRYIARRFLRMVFIVFLAFFGLMMLIDVLDQMRRFSDEGITLVQAGLLSLLRVPATLYTILPLIVILAAVALFLGLARSSELVVVRAAGRSGLRFLVAPMVVALALGTVAVTVLNPIVAGTSRQYDAAAGRLARGEASILSISKEGLWLRQGGSGEQTVIHALRSNTDGTRLYAVTFLTFDAEGRPTGRIAAEQAALERGYWQLSGAKSWDLTEANPEARAGLPGNLRVTSELTREGIQDSFGDPSAIPIWELPAYVAGLERAGFSARKHRVWMQMEFALPATLAAMVLVAAGFTMRHSRFGGTGRMVLLALLGGFSLFFLRNFAQVLGENGQIPILLAAWSPPLIGVMGSLGLLLHLEDG | failed
MKVKKWVTQDFPMVEESATVRECLHRMRQYQTNECIVKDREGHFRGVVNKEDLLDLDLDSSVFNKVSLPDFFVHEEDNITHALLLFLEHQEPYLPVVDEEMRLKGAVSLHDFLEALIEALAMDVPGIRFSVLLEDKPGELRKVVDALALSNINILSVITTRSGDGKREVLIKVDAVDEGTLIKLFESLGIKIESIEKEEGF | not failed
MKWLRSEMKTFAIHLPQFHTFPENDRWWGKGFTEWTNVKKAKPLYEGHSQPLIPINSHYYDLSNPEEMTRQHRLAAQYGIDGFVYYHYWFNGKKLMEKPVEDLLTNKEAKQQYCLCWANEPWTRAWDGKNKEILMPQTFGGQEDWLNHIRYLISFFKDERYLRIQGRPVFFVYSPKNIPNFDNMIEFWDSYLERCGEEKIYLIEYISSFNPKAFSDYSKAVFEFEPLYSAHYEISFLKQADRFIDKKMKRLDCLDYDYLWNRILNKQRKYGTRQIVRSAFTNFDNSPRKGTRAFITQGSSYTKFADYLNQLIHSNRQDYMDFTVINAWNEWGEGAILEPTESDQYGWLQAVKDAVQ | failed
MMRSSKIGFRSLAVWPFSLTAFFFFLLHPCVSAQRVYKPEDVPNVQLADSTRLVTDEAGLLSNAQEEVMNGRLRAIRSSHAVEFAVVTLPSIGDAPLEDFTLKLARQWGVGNEKNNNGLLLVLVLDQRRVRFETGYGLEGYLPDGLLSRIIHDRMIPHFRSGNYAEGLSEGVLAVQQVLDGSYDVKPDGGDRSAVSRVSWGTIFIFYCFFMLLASASVLYQLTSYRRQYPRATAVEEYEFLRRRISMLGCVFLLLFPPGFIVVMAIIKSRQNKLKKEMAVCPCCHQHSVHLLDQSLEEDRYLSPSQQMEHKLKSRDFRVYACSSCDHTQIIGYDHPGTSYKRCPNCGTVALRYMGEKRVRTDRGMMIRKEWRCLYCGENHTQEYRDNNDAEAAATGILLGSLLGRGGRSGGFGGGFGGGGFGGGSFGGGGASGGWLEHHHHHH | failed
MTCPEQAIEHDDMNVVVDVEKCKFCMDCIPVCPTGSIDNWRVVDTPYSLEDQYGWMDLPPQEDVAGDEAGLEALDDAMAALLAEAHKGAGGKSRAPATASKPTINLYTLGKPAEARVTGNYRLTAESSDSDVRHIILDFGGQPFPVLEGQSIGIIPPGTDEAGNPHLPRLYSVSSPRDGERPNFNNLSLTVKREPHGICSNHVCDLKPGDTVRVTGPFGATFLMPSDPAAHLLMICTGTGSAPFRAFTMRRQRESPKLRNSLTLVFGARRPQELPYFGPLAKVPEQFMAKHFAFSRQDGAPKHYVQDRLRAEADRVGELLADPLTHVYVCGLKAMEQGVEEAFKDIARAQGIDWTGLRDRMRDEGRYHVETY | failed
MVWFLILQLIVLLILVAFSATLMAKGTRELERSFGKGIAGGLILGFINALPETIIVIQAVLNGFYDIALGSALGGNILLLTLGIGLISIFYYLKYKSNIITLDSDINIEYSSFLLAVIILGIAIVYGKLNYYIGLFLLSPYIYYIYRRYKNYRGILKNEKNKGNAIKGLAYVMIGGLPLIFISKYLISTISSIASVFNVQPLILAILITPIAAELEENLTAIKLISDSPSSATTALMNFIGSKLENMTLLLSIIGISQTVSLRPSLLYLLLILATSLLALGIIKDRNIKVKEGLSLFGIYAILIAILLRFSA | failed
MDLIITFGLLTLVVLLEFIVVPAIILKRGTKFSTIYNYPIYIINSTEINAYSLTSVWGKFIVLTRGLVNGEDEEHIKAAIMHEVGHLKLNHHVKMSLYIISVIMVFTYLLGVNMLTLIPFALVALLVQRYLQRRLELGADRFALRFINKKMLEDLITKYDMKETTFLSTHPNIHVRLKNINE | failed
MCFPYNKTVAMLAVLMLSGCEDQAALRNADNPPSPPAARMTEFGPGTEDATITQHPYMDNRHAINEGKRLYSWFNCTGCHAHGGGGMGPPLMDKQWIYGSEPAQIFASIMEGRPNGMPAFHGKIPEQEVWKIVAYVRSLGGLSKDLPAGASSRPLQEQAESDKREVKTP | failed
AQGQRRAPLSVVFTEPQVASVGLSLRQIEDLYADQDAANYVVGQVSFEGQGRSRVMGKNKGLLNVYADRTSGEFLGAEMFGPAAEHIGHLLAWARQQQMTVQAMLTMPFYHPVIEEGLRTALRDAQQKLA | not failed
MTENAEKFLWGVATSAYQIEGATQEDGRGPSIWDAFAQRPGAIRDGSTGEPACDHYRRYEEDIALMQSLGVRAYRFSVAWPRILPEGRGRINPKGLAFYDRLVDRLLASGITPFLTLYHWDLPLALEERGGWRSRETAFAFAEYAEAVARALADRVPFFATLNEPWCSAFLGHWTGEHAPGLRNLEAALRAAHHLLLGHGLAVEALRAAGARRVGIVLNFAPAYGEDPEAVDVADRYHNRFFLDPILGKGYPESPFRDPPPVPILSRDLELVARPLDFLGVNYYAPVRVAPGTGTLPVRYLPPEGPATAMGWEVYPEGLYHLLKRLGREVPWPLYVTENGAAYPDLWTGEAVVEDPERVAYLEAHVEAALRAREEGVDLRGYFVWSLMDNFEWAFGYTRRFGLYYVDFPSQRRIPKRSALWYRERIARAQT | not failed
MELTTDIGGRSAAGVDRAPAGATSRTALWTGRVLSGLAIAFLAFDALGKLMRAAPVLEGSQQLGYPLDTVVGIGATLLACVVLYAIPRTAALGAILLTGYLGGAVATHVRVGNPLFSHVLFPTYVGALIWGGLVLRDRRLLAALLRGRARAAEEEA | failed
MSIPFSNTHYRIPQGFGNLLEGLTREILREQPDNIPAFAAAYFESLLEKREKTNFDPAEWGSKVEDRFYNNHAFEEQEPPEKSDPKQEESQISGKEEETSVTILDSSEEDKEKEEVAAVKIQAAFRGHIAREEAKKMKTNSLQNEEKEENK | failed
